Measurements: paper PMC7613265

Legend:
[1] = molecular target: RNase E (1-850) (E. coli) (UniProt P21513); assay: AUC; sedimentation velocity, truncated degradosome at 4 mg/ml in buffer S6 (50 mM Tris-HCl pH 7.5, 400 mM NaCl, 100 mM KCl, 5 mM MgCl2, 1 mM TCEP, 0.02% beta-DDM, 10% glycerol), 4 C
[2] = molecular target: RNase E (1-850), catalytically inactive, truncated degradosome scaffold;RhlB;Enolase D303N;D346N (Escherichia coli;Escherichia coli;Escherichia coli) (UniProt P21513+P0A8J8+P0A6P9); assay: SEC-SAXS; settings: SEC-SAXS buffer not given in the material. EMSA (30S ribosomal subunit, not listed because it is a ribonucleoprotein): 40 mM Tris-HCl pH 7.5, 100 mM NaCl …

| Substance | stoichiometry N [1] | binding [2] |
| --- | --- | --- |
| RNase E (1-850) (from UniProt P21513 1-850) (domain or fragment) | 4 |  |
| GAAGCUGUUUUGGCGGAUGAGAGAAGAUUUUCAGCCUGAUACAGAUUAAAUCAGAACGCAGAAGCGGUCUGAUAAAACAGAAUUUGCCUGGCGGCAGUAGCGCGGUGGUCCCACCUGACCCCAUGCCGAACUCAGAAGUGAAACGCCGUAGCGCCGAUGGUAGUGUGGGGUCUCCCCAUGCGAGAGUAGGGAACUGCCAGGCAUCAAAUAAAACGAAAGGCUCAGUCGAAAGACUGGGCCUUUCG [9S RNA (5S rRNA precursor)] |  | binds |
